This data set is described as follows: total protein half-life in vivo (active degradation + dilution); higher = more stable protein.
[1] abbreviates: E. coli NCM3722 delta-clpP, growth: N-lim chemostat, doubling time 6 h.
Setting [2] is: E. coli NCM3722 delta-lon, growth: N-lim chemostat, doubling time 6 h.
Setting [3] is: E. coli NCM3722 delta-smpB, growth: N-lim chemostat, doubling time 6 h.
The mark [4] stands for this setting: wild type E. coli NCM3722, growth: C-lim chemostat, doubling time 6 h.
The mark [5] stands for this setting: wild type E. coli NCM3722, growth: C-lim chemostat, doubling time 12 h.
Where [6] appears, read: wild type E. coli NCM3722, growth: N-lim chemostat, doubling time 6 h.
[7] abbreviates: wild type E. coli NCM3722, growth: N-lim chemostat, doubling time 12 h.
[8] abbreviates: wild type E. coli NCM3722, growth: P-lim chemostat, doubling time 6 h.
The mark [9] stands for this setting: E. coli NCM3722 delta-clpP delta-lon delta-hslV, growth: N-lim chemostat, doubling time 6 h.
Setting [10] is: E. coli NCM3722 delta-hslV, growth: N-lim chemostat, doubling time 6 h.
The mark [11] stands for this setting: wild type E. coli NCM3722, growth: C-lim chemostat, doubling time 3 h.
[12] abbreviates: wild type E. coli NCM3722, growth: P-lim chemostat, doubling time 12 h.

± gives the standard deviation of the averaged measurements.

For “MKENNLNRVIGWSGLLLTSLLSTSALADNIGTSAEELGLSDYRHFVIYPRLDKALKAQKNNDEATAIREFEYIHQQVPDNIPLTLYLAEAYRHFGHDDRARLLLEDQLKRHPGDARLERSLAAIPVEVKSVTTVEELLAQQKACDAAPTLRCRSEVGQNALRLAQLPVARAQLNDATFAASPEGKTLRTDLLQRAIYLKQWSQADTLYNEARQQNTLSAAERRQWFDVLLAGQLDDRILALQSQGIFTDPQSYITYATALAYRGEKARLQHYLIENKPLFTTDAQEKSWLYLLSKYSANPVQALANYTVQFADNRQYVVGATLPVLLKEGQYDAAQKLLATLPANEMLEERYAVSVATRNKAEALRLARLLYQQEPANLTRLDQLTWQLMQNEQSREAADLLLQRYPFQGDARVSQTLMARLASLLESHPYLATPAKVAILSKPLPLAEQRQWQSQLPGIADNCPAIVRLLGDMSPSYDAAAWNRLAKCYRDTLPGVALYAWLQAEQRQPSAWQHRAVAYQAYQVEDYATALAAWQKISLHDMSNEDLLAAANTAQAAGNGAARDRWLQQAEKRGLGSNALYWWLHAQRYIPGQPELALNDLTRSINIAPSANAYVARATIYRQRHNVPAAVSDLRAALELEPNNSNTQAALGYALWDSGDIAQSREMLEPAHKGLPDDPALIRQLAYVNQRLDDMPATQHYARLVIDDIDNQALITPLTPEQNQQRFNFRRLHEEVGRRWTFSFDSSIGLRSGAMSTANNNVGGAAPGKSYRSYGQLEAEYRIGRNMLLEGDLLSVYSRVFADTGENGVMMPVKNPMSGTGLRWKPLRDQIFFIAVEQQLPLNGQNGASDTMLRASASFFNGGKYSDEWHPNGSGWFAQNLYLDAAQYIRQDIQAWTADYRVSWHQKVANGQTIEPYAHVQDNGYRDKGTQGAQLGGVGVRWNIWTGETHYDAWPHKVSLGVEYQHTFKAINQRNGERNNAFLTIGVHW”, the “total protein half-life in vivo” value is, setting by setting: under setting [1], 6.61 ± 0.31 h; under setting [2], 6.08 ± 0.15 h; under setting [3], 5.92 ± 0.22 h; under setting [4], 6.45 ± 0.45 h; under setting [5], 11.31 ± 0.082 h; under setting [6], 6.193 ± 0.047 h. Also, the “total protein half-life in vivo” value stood at 12.7 ± 1 h under setting [7] and 5.88 ± 0.08 h under setting [8].
On to “MANSITADEIREQFSQAMSAMYQQEVPQYGTLLELVADVNLAVLENNPQLHEKMVNADELARLNVERHGAIRVGTAQELATLRRMFAIMGMYPVSYYDLSQAGVPVHSTAFRPIDDASLARNPFRVFTSLLRLELIENEILRQKAAEILRQRDIFTPRCRQLLEEYEQQGGFNETQAQEFVQEALETFRWHQSATVDEETYRALHNEHRLIADVVCFPGCHINHLTPRTLDIDRVQSMMPECGIEPKILIEGPPRREVPILLRQTSFKALEETVLFAGQKQGTHTARFGEIEQRGVALTPKGRQLYDDLLRNAGTGQDNLTHQMHLQETFRTFPDSEFLMRQQGLAWFRYRLTPSGEAHRQAIHPGDDPQPLIERGWVVAQPITYEDFLPVSAAGIFQSNLGNETQTRSHGNASREAFEQALGCPVLDEFQLYQEAEERSKRRCGLL”, for which the “total protein half-life in vivo” value under setting [9] amounted to 4.93 ± 0.48 h; the “total protein half-life in vivo” value under setting [1] was determined as 4.86 ± 2.3 h; the “total protein half-life in vivo” value under setting [10] amounted to 3.34 h; the “total protein half-life in vivo” value under setting [2] was found to be 3.29 ± 0.28 h; the “total protein half-life in vivo” value under setting [3] was 3.09 ± 0.13 h; the “total protein half-life in vivo” value under setting [11] is 1.93 ± 0.29 h. The “total protein half-life in vivo” value by setting is: under setting [4], 3.5 ± 0.098 h; under setting [5], 5.086 ± 0.02 h; under setting [6], 3.41 ± 0.23 h; under setting [7], 4.83 ± 0.42 h; under setting [8], 3.15 ± 0.84 h; under setting [12], 6.32 ± 0.42 h.
On to “MSAIAPGMILIAYLCGSISSAILVCRLCGLPDPRTSGSGNPGATNVLRIGGKGAAVAVLIFDVLKGMLPVWGAYELGVSPFWLGLIAIAACLGHIWPVFFGFKGGKGVATAFGAIAPIGWDLTGVMAGTWLLTVLLSGYSSLGAIVSALIAPFYVWWFKPQFTFPVSMLSCLILLRHHDNIQRLWRRQETKIWTKFKRKREKDPE”, for which the “total protein half-life in vivo” value runs as follows: under setting [9], 6.82 h; under setting [1], 6.64 h; under setting [10], > 8 h; under setting [2], 7.06 h; under setting [3], 5.72 h; under setting [4], 6.29 h. Also, the “total protein half-life in vivo” value was found to be 6.93 ± 0.78 h under setting [6], 9.94 h under setting [7], 6.01 ± 0.4 h under setting [8] and 11 h under setting [12].
Turning to “MIKLSEKGVFLASNNEIIAEEHFTGEIKKEEAKKGTIAWSILSSHNTSGNMDKLKIKFDSLASHDITFVGIVQTAKASGMERFPLPYVLTNCHNSLCAVGGTINGDDHVFGLSAAQRYGGIFVPPHIAVIHQYMREMMAGGGKMILGSDSHTRYGALGTMAVGEGGGELVKQLLNDTWDIDYPGVVAVHLTGKPAPYVGPQDVALAIIGAVFKNGYVKNKVMEFVGPGVSALSTDFRNSVDVMTTETTCLSSVWQTDEEVHNWLALHGRGQDYCQLNPQPMAYYDGCISVDLSAIKPMIALPFHPSNVYEIDTLNQNLTDILREIEIESERVAHGKAKLSLLDKVENGRLKVQQGIIAGCSGGNYENVIAAANALRGQSCGNDTFSLAVYPSSQPVFMDLAKKGVVADLIGAGAIIRTAFCGPCFGAGDTPINNGLSIRHTTRNFPNREGSKPANGQMSAVALMDARSIAATAANGGYLTSASELDCWDNVPEYAFDVTPYKNRVYQGFVKGATQQPLIYGPNIKDWPELGALTDNIVLKVCSKILDEVTTTDELIPSGETSSYRSNPIGLAEFTLSRRDPGYVSRSKATAELENQRLAGNVSELTEVFARIKQIAGQEHIDPLQTEIGSMVYAVKPGDGSAREQAASCQRVIGGLANIAEEYATKRYRSNVINWGMLPLQMAEVPTFEVGDYIYIPGIKAALDNPGTTFKGYVIHEDAPVTEITLYMESLTAEEREIIKAGSLINFNKNRQM”, the “total protein half-life in vivo” value worked out at 5.63 h under setting [1]; 6.45 h under setting [10]; 1.12 h under setting [11]; 1.87 ± 0.76 h under setting [4]; 2.37 h under setting [8]; 1.31 ± 0.42 h under setting [12].
As to “MCIGVPGQVLAVGEDIHQLAQVEVCGIKRDVNIALICEGNPADLLGQWVLVHVGFAMSIIDEDEAKATLDALRQMDYDITSA [P0AAM7]”, the “total protein half-life in vivo” value runs as follows: under setting [9], 4.75 ± 0.12 h; under setting [4], 2.77 h; under setting [12], 2.51 h.
For “MTITPATHAISINPATGEQLSVLPWAGADDIENALQLAAAGFRDWRETNIDYRAEKLRDIGKALRARSEEMAQMITREMGKPINQARAEVAKSANLCDWYAEHGPAMLKAEPTLVENQQAVIEYRPLGTILAIMPWNFPLWQVMRGAVPIILAGNGYLLKHAPNVMGCAQLIAQVFKDAGIPQGVYGWLNADNDGVSQMIKDSRIAAVTVTGSVRAGAAIGAQAGAALKKCVLELGGSDPFIVLNDADLELAVKAAVAGRYQNTGQVCAAAKRFIIEEGIASAFTERFVAAAAALKMGDPRDEENALGPMARFDLRDELHHQVEKTLAQGARLLLGGEKMAGAGNYYPPTVLANVTPEMTAFREEMFGPVAAITIAKDAEHALELANDSEFGLSATIFTTDETQARQMAARLECGGVFINGYCASDARVAFGGVKKSGFGRELSHFGLHEFCNIQTVWKDRI”, the “total protein half-life in vivo” value reads like this: under setting [9], 3.43 ± 0.22 h; under setting [1], 2.38 ± 0.15 h; under setting [10], 2.3185 ± 0.00041 h; under setting [2], 3.35 ± 0.57 h; under setting [3], 2.62 ± 0.24 h; under setting [11], 2.87 ± 0.15 h. For the same sequence, the “total protein half-life in vivo” value is 4.72 ± 0.27 h under setting [4]; 7.87 ± 0.72 h under setting [5]; 2.56 ± 0.092 h under setting [6]; 3.65 ± 0.4 h under setting [7]; 5.341 ± 0.022 h under setting [8]; 9.54 ± 0.88 h under setting [12].
For “MAVAANKRSVMTLFSGPTDIYSHQVRIVLAEKGVSFEIEHVEKDNPPQDLIDLNPNQSVPTLVDRELTLWESRIIMEYLDERFPHPPLMPVYPVARGESRLYMHRIEKDWYTLMNTIINGSASEADAARKQLREELLAIAPVFGQKPYFLSDEFSLVDCYLAPLLWRLPQLGIEFSGPGAKELKGYMTRVFERDSFLASLTEAEREMRLGRS [P0ACA3]”, the “total protein half-life in vivo” value under setting [9] came out at 5.94 ± 0.21 h; the “total protein half-life in vivo” value under setting [1] worked out at 5.92 ± 0.064 h; the “total protein half-life in vivo” value under setting [10] came to 5.87 ± 0.5 h; the “total protein half-life in vivo” value under setting [2] turned out to be 6.44 ± 0.27 h; the “total protein half-life in vivo” value under setting [3] turned out to be 5.54 ± 0.15 h; the “total protein half-life in vivo” value under setting [11] was 2.919 ± 0.029 h. For the same sequence, the “total protein half-life in vivo” value reads like this: under setting [4], 5.9 ± 0.62 h; under setting [5], 10.9 ± 0.67 h; under setting [6], 5.8 ± 0.29 h; under setting [7], 11.6 ± 0.58 h; under setting [8], 5.85 ± 0.11 h; under setting [12], 13.5 ± 1.2 h.

Values taken from the supplement of paper PMC11246515.
